Reference: patent publication US20060177448

Molecular target: gDHER2(DIV)-IgG, P04626

B1: purified catalytic domain of MT5-MMP (MMP-25) (protein)
chain: YALSGSVWKKRTLTWRVRSFPQSSQLSQETVRVLMSYALMAWGMESGLTFHEVDSPQGQEPDILIDFARAFHQDSYPFDGLGGTLAHAFFPGEHPISGDTHFDDEETWTFGSKDGEGTDLFAVAVHEFGHALGLGHSSAPNSIMRPFYQGPVGDPDKYRLSQDDRDGLQQLYG
in vitro HER2 cleavage (sheddase) assay, stained gel: All MT-MMPs except MMP-14 efficiently cleave gDHER2(DIV)-IgG substrate
